Reference: the supplement of paper PMC9170038

Test system: MS2 coat protein
Assay: apparent KD of MS2 coat protein; higher = weaker reporter binding
Details: Eterna round: R107
Procedure, shortened: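 Apparent KD stands for the median, per design, of fits to normalised cluster binding curves. The curves came from titrating on-chip-transcribed RNA switches on Illumina sequencing clusters with SNAP-549-labelled MS2 coat protein, twofold from 0.7 or 1.5 nM to 3 µM. Buffer was 100 mM Tris-HCl pH 7.5, 80 mM KCl, 4 mM MgCl2, without or with constant ligand.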

[1] = input ligand: theophylline 20 uM
[2] = input ligand: theophylline 2 mM
[3] = input ligand: tryptophan 2.4 mM

Sequence	apparent KD of MS2 coat protein (input ligand: arginine 13.2 mM) [nM]	apparent KD of MS2 coat protein (input ligand: none) [nM]	apparent KD of MS2 coat protein [1] [nM]	apparent KD of MS2 coat protein [2] [nM]	apparent KD of MS2 coat protein [3] [nM]
AGUACAUGAGGAUCACCCAUGUACCAUGAUACCAGACAUGAAAAUGUCCCUUGGCAGCGUGGGUGAGGCAUCCGAAAGGAUGCCC [#05 SameState-TheophyllineA]	51.1	223	185	30.5	77.7
AGUACUCGAACGGAUACCAGCCGGACAUGAGGAUCACCCAUGUCCUACCUCUGUUCGGUUGGCCCUUGGCAGCCGUUCGUGUACA [Omei Theo B SS A v7]	41.4		580		128
AGUCGAAACUGAAGGAGCGAGAUGACAACAUUGGGUCUAACAUGAGGAUCACCCAUGUAAUCUCAGGUAGGUCGCAGUAACAAAA [Exclusion Arginine B GF 16]	172	78.7	165	104	93.1
AGUCUGGACUCGGCCGCCACUCGUGAUGCUUUGGCACAUGAGGAUCACCCAUGUGGUCGGCCUUAGAGGACCGGGAGUACCAGCU [Zaraoned]	38.6		65.9	61.3	
AGUCUUAAAGGAAGGAGCGCAAUCAUAACAUGAGGAUCACCCAUGUCGAGGUGAGGGUCAUUGCAGGUAGGUCGCCUUACUAAGA [Same State - Arginine B (Freestyle 7)]	128	79.6	88.7	134	78.4
AGUCUUAUAGGAAGGAGCGCAAUCAUAACAUGAGGAUCACCCAUGUCGAGGUGAGGGUCAUUGCAGGUAGGUCGCCUAACUAAGA [Same State - Arginine B (Freestyle 8)]	126	281	121	344	96.5
AGUGCUACGUGUAAUCAAAGAGAACCAGAUACCAGAUUAGCAUACAUCCCUUGGCAGCUGCAUACAUGAGGAUCACCCAUGUCAG [theeternabot_exclusion_MS2_Theo_A_31]	26.5		38.4		31.8
AGUGUUGUAACUGAUACCAGACCUUUGCUUAUACAUGAGGAUCACCCAUGUAAAAUGGCGGUCCCUUGGCAGCAGAGAAGACGCA [#10 Same State - Theophylline B]	41.5		27		41.9
AGUUAAAUAUGUUAAUAACUAUUUACUGAAGGAGCGUGUUUUGACACAGGUAGGUCGCAGUGACAUGAGGAUCACCCAUGUCGUA [#08 Same State - Arginine A]	20.3	17.4	21.8	21.6	19.2
AGUUAUUUCCGAAGGAGCGUUAUACAUGAGGAUCACCCAUGUACAUGAGGUUCAACAUGAAAACAGGUAGGUCGCGGAUUUUGUC [Exclusion Arginine B4]	15.6	19.2	27.6	29	14.2
AUAACAUGAGGAUCACCCAUGUAAGCUGAAGGAGCGCUGGAAACAGCAGGUAGGUCGCAGCUACCUACCACCUCAUGAGGUAGGU [(M1)-(M2)-(Arg1)-(Arg2)-(A)'-(M)'-(A)''_Design6]	16.4	18.5	24.4	25.9	19
AUAACAUGAGGAUCACCCAUGUAUUGGUAACGAGGACCGGUACGGCCGCCACUCGAAUUUUGGUGGUAUAAUAUAUAUAUGAUUA [JR_SSTryptoA_Sub016]	17.4		25.4	18.8	
AUAAGUACGUCAGAUACCAGACAGCCAGACUUACAUGAGGAUCACCCAUGUGGAUGGACGGUCCCUUGGCAGCUGGCCGCAAAAG [Isedgeor]	172		128		216
AUAAUGAGUGGUGGAUAGGUGAUCCUCUUACGAGGACCGGUACGGCCGCCACUCGAUAACAUGAGGAUCACCCAUGUAAUAAUAA [|T'-M'-Trp-Ms2|_Design19]	21		22.6	18.9	
AUACAUGAGGAUCACCCAUGUAUAGAUGAAGGAGCGACCAGAGGGUCAGGUAGGUCGCAUCACAUGAGGAUCACCCAUGUACUUA [DOUBLE!!! :-D #9]	27.1	42.1	43.7	42.7	41.5
AUACAUGAGGAUCACCCAUGUCACACAGAAGGAGCGGCUGUAGAGCCAGGUAGGUCGCUGUACUGAAAAUACUUCAUACUCAUGU [#30 Exclusion - Arginine A]	21.7	59.6	43	32.3	26.1
AUACAUGAGGAUCACCCAUGUCAUACAGAAGGAGCGUCAUAUUAGACAGGUAGGUCGCUGUAAUUUUUAUUAUUCUUUAUGUAUU [JR_Nu_ExcArginiA_Sub026]	21.9	26	33.5	26.9	26.1
AUACAUGAGGAUCACCCAUGUUAUAGUGAAGGAGCGACAUUUAGGUCAGGUAGGUCGCACUAUUGAAUUAUUAUCCUUAUUUCUU [JR_ExcArginiA_Sub020]	16.1	14	22	15.5	15.7

Sequence	apparent KD of MS2 coat protein (input ligand: arginine 13.2 mM) [nM]	apparent KD of MS2 coat protein (input ligand: none) [nM]	apparent KD of MS2 coat protein [1] [nM]	apparent KD of MS2 coat protein [2] [nM]	apparent KD of MS2 coat protein [3] [nM]
AUACCUAAUGAGUCGUGUAACUUUUCAGAUACCAGACUUUUCGUUGUCCCUUGGCAGCUGUUUUACAUGAGGAUCACCCAUGUUG [JR_ExcTheophyA_Sub008]	14.9		18.5		14.9
AUACCUAGUGAGUCGUGUUUCUUUUCAGAUACCAGACUUUUCGUUGUCCCUUGGCAGCUGUUUUACAUGAGGAUCACCCAUGUUG [JR_ExcTheophyA_Sub007]	16.1		18.4		15.2
AUCAUAAUAGACUCGUUAGAUUAUAUGGAACGAGGACCGGUACGGCCGCCACUCGUGAUGUACAUGAGGAUCACCCAUGUUAGCA [JR_SSTryptoA_Sub002]	13.1		17.4	17.3	
AUCAUCAGUUCGGCCGCCACUGUUUGGCACAGUUGUAUCGUACAUGAGGAUCACCCAUGUCACCACAGGACCGGGAACGCCGUCG [theeternabot_exclusion_MS2_Trp_B_1]	16.3		21.6	18.3	
AUCCUCAAGAAUGAUACCAGACCAAACAUGAGGAUCACCCAUGUAUCAGGCAAUUGUUACGUCCCUUGGCAGCAUGUAAGCCGAC [Theo B SS t2]	35.5		70.2		39.2
AUCGCACCUGGUGAUACCAGCGUUUGCUCGUGACAUGAGGAUCACCCAUGUGGCCAGUGAUGCCCUUGGCAGCAUGGUCGGUGCA [Same State - Theophylline B (Freestyle 26)]	61.7		376		296
AUCGUACCUGAAGAUACCAGCAUGUGAUCAUAACAUGAGGAUCACCCAUGUAAUCAGUGAUGCCCUUGGCAGCUUGAUCGGUACA [Same State - Theophylline B (Freestyle 12)]	39.6		41.3		30.2
AUCGUACCUGAUGAUACCAGCAUGUGAUCAUAACAUGAGGAUCACCCAUGUAAUCAGUGAUGCCCUUGGCAGCAUAGUCGAUACA [Same State - Theophylline B (Freestyle 6)]	80.8		174		149
AUCGUACCUGAUGAUACCAGCAUGUGCUCGUAACAUGAGGAUCACCCAUGUGAUCAGUAAUGCCCUUGGCAGCAUGAUCGGUACA [Same State - Theophylline B (Freestyle 17)]	58.8		46.9		50.8
AUGCAUAGCCGAAGGAGCGCAAUAGAAUGACAUGAGGAUCACCCAUGUGUGUGAUGUGGAUUGCAGGUAGGUCGCGGAGUGGUAU [Exclusion - Arginine B (Freestyle 4)]	34.2	37.7	52.6	48.1	30.5
AUGGAACAUGAGGAUCACCCAUGUGAUGAUACCAGAUUAACGCUUAUCCCUUGGCAGCAUGUCCGCCCUCAACCUGUGGCGUAUU [theeternabot_sameState_MS2_Theo_A_50]	21.5		36		20.3
AUGGACGGCGAUCUGGGUUUACCAGAUCGGCGAGGACCGGUACGGCCGCCACUCGUGUUUAUUUAACAUGAGGAUCACCCAUGUA [SSTA #2]	62.4	97.6	163	139	21.3
AUGUCGUUGAAUACAGCGGCAUGGAGUGAUACCAGAAUGAUCAAAUUCCCUUGGCAGCAUCACAUGAGGAUCACCCAUGUUCGAU [SSTheo A #16]	22.2		33.2		40.9
AUUAAUAGUUGUGAUACCAGACGAACAUGAGGAUCACCCAUGUAACUUUUAGGUGUUGUAGUCCCUUGGCAGCACUAUUUAGUUA [JR_SSTheophyB_Sub014]	29.3		48.4		33.6
AUUAUCAUGGUCAUAUAUAUUUCGUCAGAUACCAGACUAGAUAUAGUCCCUUGGCAGCUGUUACAUGAGGAUCACCCAUGUUAUU [JR_ExcTheophyA_Sub017]	32.2		80.3		96.3
CAAAACCUUACAGAUACCAGCACAUGAGGAUCACCCAUGUAUUGGACACUUCGCUCAUCGUGCCCUUGGCAGCUGUGGGACGAGG [Tiatenan]	30.3		132		77.6
CAAACAUGAGGAUCACCCAUGUAAACCGAAGGAGCGACGCAUAAGUCAGGUAGGUCGCGGAAGAUAAAAUAGAACACUGGGCACA [Same State Arginine A GF1]	18.2	17.7	19.2	17.3	19.1
CAAACAUGAGGAUCACCCAUGUAAUCAGAUACCAGUGACGAAAGUCACCCUUGGCAGCUGAGUACAUUAGUUCUAAGGUGUUUGA [EThA NP+V+V2 #6 +-Same Structure]	32.7		61		35.7
